Experimental data taken from patent US20140087995A1 (published 2014).
Numbered stars: 1 amine (or outer) side, 2 acyl side, 3 side chain; on linkers, the order of the positions; unused ones are H or OH. Bridge positions count the residues as written; N and C are the ends. Side chains are listed from the residue outwards. Ends that are not written are not given here. * marks the point of attachment. C20 diacid = O=C(O)CCCCCCCCCCCCCCCCCCC(=O)*; γGlu = O=C(O)[C@H](CCC(=O)[*:2])N[*:1]

T1: rat calcitonin receptor (rat, UniProt P32214 25-516)
T1 construct: whole, on cells; Used as membranes prepared from the transfected cells; also called rCTR; rCT
T1 sequence (looked up): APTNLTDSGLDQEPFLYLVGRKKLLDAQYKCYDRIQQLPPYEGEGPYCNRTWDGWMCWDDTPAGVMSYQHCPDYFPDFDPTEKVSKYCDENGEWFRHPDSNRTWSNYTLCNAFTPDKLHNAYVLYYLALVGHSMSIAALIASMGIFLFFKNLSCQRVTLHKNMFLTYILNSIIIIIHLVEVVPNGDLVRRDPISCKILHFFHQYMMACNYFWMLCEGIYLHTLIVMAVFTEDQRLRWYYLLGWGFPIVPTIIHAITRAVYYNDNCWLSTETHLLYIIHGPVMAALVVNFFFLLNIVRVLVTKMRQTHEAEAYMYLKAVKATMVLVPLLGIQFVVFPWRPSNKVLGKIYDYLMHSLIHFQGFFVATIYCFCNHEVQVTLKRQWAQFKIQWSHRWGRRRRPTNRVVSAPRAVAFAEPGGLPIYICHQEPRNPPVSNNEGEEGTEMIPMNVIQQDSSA

T2: human calcitonin receptor (human, UniProt P30988 25-474)
T2 construct: whole, on cells; Used as membranes prepared from the transfected cells; also called hCTR; hCT
T2 sequence (looked up): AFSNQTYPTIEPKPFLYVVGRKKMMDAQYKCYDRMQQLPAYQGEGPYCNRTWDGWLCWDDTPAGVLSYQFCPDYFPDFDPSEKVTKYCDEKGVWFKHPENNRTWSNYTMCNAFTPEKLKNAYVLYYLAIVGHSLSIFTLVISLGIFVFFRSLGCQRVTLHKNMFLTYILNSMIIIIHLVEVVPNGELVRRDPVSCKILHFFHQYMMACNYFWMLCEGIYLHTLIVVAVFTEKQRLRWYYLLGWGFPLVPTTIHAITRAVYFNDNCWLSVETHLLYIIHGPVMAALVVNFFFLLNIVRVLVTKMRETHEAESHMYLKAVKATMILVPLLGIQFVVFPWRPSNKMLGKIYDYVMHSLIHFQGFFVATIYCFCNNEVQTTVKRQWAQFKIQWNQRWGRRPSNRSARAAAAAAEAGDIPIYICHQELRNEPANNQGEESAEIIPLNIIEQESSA

B1: N^ε1-[(4S)-4-carboxy-4-(19-carboxynonadecanoylamino)butanoyl]-[Arg14,Arg17,Pro21,Pro27,Pro34]-h-amylin (peptide)
peptide: K([γGlu-C20 diacid])CNTATCATQRLARFLRHSSPNFGAIPSSTNVGPNTY-NH2
modifications: disulfide 2-7; N-terminus assumed
SMILES: CC[C@H](C)[C@H](NC(=O)[C@H](C)NC(=O)CNC(=O)[C@H](Cc1ccccc1)NC(=O)[C@H](CC(N)=O)NC(=O)[C@@H]1CCCN1C(=O)[C@H](CO)NC(=O)[C@H](CO)NC(=O)[C@H](Cc1c[nH]cn1)NC(=O)[C@H](CCCNC(=N)N)NC(=O)[C@H](CC(C)C)NC(=O)[C@H](Cc1ccccc1)NC(=O)[C@H](CCCNC(=N)N)NC(=O)[C@H](C)NC(=O)[C@H](CC(C)C)NC(=O)[C@H](CCCNC(=N)N)NC(=O)[C@H](CCC(N)=O)NC(=O)[C@@H](NC(=O)[C@H](C)NC(=O)[C@@H]1CSSC[C@H](NC(=O)[C@@H](N)CCCCNC(=O)CC[C@H](NC(=O)CCCCCCCCCCCCCCCCCCC(=O)O)C(=O)O)C(=O)N[C@@H](CC(N)=O)C(=O)N[C@@H]([C@@H](C)O)C(=O)N[C@@H](C)C(=O)N[C@@H]([C@@H](C)O)C(=O)N1)[C@@H](C)O)C(=O)N1CCC[C@H]1C(=O)N[C@@H](CO)C(=O)N[C@@H](CO)C(=O)N[C@H](C(=O)N[C@@H](CC(N)=O)C(=O)N[C@H](C(=O)NCC(=O)N1CCC[C@H]1C(=O)N[C@@H](CC(N)=O)C(=O)N[C@H](C(=O)N[C@@H](Cc1ccc(O)cc1)C(N)=O)[C@@H](C)O)C(C)C)[C@@H](C)O
notes: Analogue of human amylin; disulfide and C-terminal amide as told for h-amylin; also called compound 65
B2: N^ε1-[(4S)-4-carboxy-4-(19-carboxynonadecanoylamino)butanoyl]-[Arg17,Pro21,Pro27,His34]-h-amylin (peptide)
peptide: K([γGlu-C20 diacid])CNTATCATQRLANFLRHSSPNFGAIPSSTNVGHNTY-NH2
modifications: disulfide 2-7; N-terminus assumed
SMILES: CC[C@H](C)[C@H](NC(=O)[C@H](C)NC(=O)CNC(=O)[C@H](Cc1ccccc1)NC(=O)[C@H](CC(N)=O)NC(=O)[C@@H]1CCCN1C(=O)[C@H](CO)NC(=O)[C@H](CO)NC(=O)[C@H](Cc1c[nH]cn1)NC(=O)[C@H](CCCNC(=N)N)NC(=O)[C@H](CC(C)C)NC(=O)[C@H](Cc1ccccc1)NC(=O)[C@H](CC(N)=O)NC(=O)[C@H](C)NC(=O)[C@H](CC(C)C)NC(=O)[C@H](CCCNC(=N)N)NC(=O)[C@H](CCC(N)=O)NC(=O)[C@@H](NC(=O)[C@H](C)NC(=O)[C@@H]1CSSC[C@H](NC(=O)[C@@H](N)CCCCNC(=O)CC[C@H](NC(=O)CCCCCCCCCCCCCCCCCCC(=O)O)C(=O)O)C(=O)N[C@@H](CC(N)=O)C(=O)N[C@@H]([C@@H](C)O)C(=O)N[C@@H](C)C(=O)N[C@@H]([C@@H](C)O)C(=O)N1)[C@@H](C)O)C(=O)N1CCC[C@H]1C(=O)N[C@@H](CO)C(=O)N[C@@H](CO)C(=O)N[C@H](C(=O)N[C@@H](CC(N)=O)C(=O)N[C@H](C(=O)NCC(=O)N[C@@H](Cc1c[nH]cn1)C(=O)N[C@@H](CC(N)=O)C(=O)N[C@H](C(=O)N[C@@H](Cc1ccc(O)cc1)C(N)=O)[C@@H](C)O)C(C)C)[C@@H](C)O
notes: Analogue of human amylin; disulfide and C-terminal amide as told for h-amylin; also called compound 77
B3: N^ε1-[(4S)-4-carboxy-4-(19-carboxynonadecanoylamino)butanoyl]-[Arg14,Arg17,Pro21,Pro27]-h-amylin (peptide)
peptide: K([γGlu-C20 diacid])CNTATCATQRLARFLRHSSPNFGAIPSSTNVGSNTY-NH2
modifications: disulfide 2-7; N-terminus assumed
SMILES: CC[C@H](C)[C@H](NC(=O)[C@H](C)NC(=O)CNC(=O)[C@H](Cc1ccccc1)NC(=O)[C@H](CC(N)=O)NC(=O)[C@@H]1CCCN1C(=O)[C@H](CO)NC(=O)[C@H](CO)NC(=O)[C@H](Cc1c[nH]cn1)NC(=O)[C@H](CCCNC(=N)N)NC(=O)[C@H](CC(C)C)NC(=O)[C@H](Cc1ccccc1)NC(=O)[C@H](CCCNC(=N)N)NC(=O)[C@H](C)NC(=O)[C@H](CC(C)C)NC(=O)[C@H](CCCNC(=N)N)NC(=O)[C@H](CCC(N)=O)NC(=O)[C@@H](NC(=O)[C@H](C)NC(=O)[C@@H]1CSSC[C@H](NC(=O)[C@@H](N)CCCCNC(=O)CC[C@H](NC(=O)CCCCCCCCCCCCCCCCCCC(=O)O)C(=O)O)C(=O)N[C@@H](CC(N)=O)C(=O)N[C@@H]([C@@H](C)O)C(=O)N[C@@H](C)C(=O)N[C@@H]([C@@H](C)O)C(=O)N1)[C@@H](C)O)C(=O)N1CCC[C@H]1C(=O)N[C@@H](CO)C(=O)N[C@@H](CO)C(=O)N[C@H](C(=O)N[C@@H](CC(N)=O)C(=O)N[C@H](C(=O)NCC(=O)N[C@@H](CO)C(=O)N[C@@H](CC(N)=O)C(=O)N[C@H](C(=O)N[C@@H](Cc1ccc(O)cc1)C(N)=O)[C@@H](C)O)C(C)C)[C@@H](C)O
notes: Analogue of human amylin; disulfide and C-terminal amide as told for h-amylin; also called compound 83
B4: N^ε1-[(4S)-4-carboxy-4-(19-carboxynonadecanoylamino)butanoyl]-[His14,Arg17,Pro21,Pro27,Arg34]-h-amylin (peptide)
peptide: K([γGlu-C20 diacid])CNTATCATQRLAHFLRHSSPNFGAIPSSTNVGRNTY-NH2
modifications: disulfide 2-7; N-terminus assumed
SMILES: CC[C@H](C)[C@H](NC(=O)[C@H](C)NC(=O)CNC(=O)[C@H](Cc1ccccc1)NC(=O)[C@H](CC(N)=O)NC(=O)[C@@H]1CCCN1C(=O)[C@H](CO)NC(=O)[C@H](CO)NC(=O)[C@H](Cc1c[nH]cn1)NC(=O)[C@H](CCCNC(=N)N)NC(=O)[C@H](CC(C)C)NC(=O)[C@H](Cc1ccccc1)NC(=O)[C@H](Cc1c[nH]cn1)NC(=O)[C@H](C)NC(=O)[C@H](CC(C)C)NC(=O)[C@H](CCCNC(=N)N)NC(=O)[C@H](CCC(N)=O)NC(=O)[C@@H](NC(=O)[C@H](C)NC(=O)[C@@H]1CSSC[C@H](NC(=O)[C@@H](N)CCCCNC(=O)CC[C@H](NC(=O)CCCCCCCCCCCCCCCCCCC(=O)O)C(=O)O)C(=O)N[C@@H](CC(N)=O)C(=O)N[C@@H]([C@@H](C)O)C(=O)N[C@@H](C)C(=O)N[C@@H]([C@@H](C)O)C(=O)N1)[C@@H](C)O)C(=O)N1CCC[C@H]1C(=O)N[C@@H](CO)C(=O)N[C@@H](CO)C(=O)N[C@H](C(=O)N[C@@H](CC(N)=O)C(=O)N[C@H](C(=O)NCC(=O)N[C@@H](CCCNC(=N)N)C(=O)N[C@@H](CC(N)=O)C(=O)N[C@H](C(=O)N[C@@H](Cc1ccc(O)cc1)C(N)=O)[C@@H](C)O)C(C)C)[C@@H](C)O
notes: Analogue of human amylin; disulfide and C-terminal amide as told for h-amylin; also called compound 85
B5: N^ε1-[(4S)-4-carboxy-4-(19-carboxynonadecanoylamino)butanoyl]-[Arg17,Pro21,Pro27,Arg34]-h-amylin (peptide)
peptide: K([γGlu-C20 diacid])CNTATCATQRLANFLRHSSPNFGAIPSSTNVGRNTY-NH2
modifications: disulfide 2-7; N-terminus assumed
SMILES: CC[C@H](C)[C@H](NC(=O)[C@H](C)NC(=O)CNC(=O)[C@H](Cc1ccccc1)NC(=O)[C@H](CC(N)=O)NC(=O)[C@@H]1CCCN1C(=O)[C@H](CO)NC(=O)[C@H](CO)NC(=O)[C@H](Cc1c[nH]cn1)NC(=O)[C@H](CCCNC(=N)N)NC(=O)[C@H](CC(C)C)NC(=O)[C@H](Cc1ccccc1)NC(=O)[C@H](CC(N)=O)NC(=O)[C@H](C)NC(=O)[C@H](CC(C)C)NC(=O)[C@H](CCCNC(=N)N)NC(=O)[C@H](CCC(N)=O)NC(=O)[C@@H](NC(=O)[C@H](C)NC(=O)[C@@H]1CSSC[C@H](NC(=O)[C@@H](N)CCCCNC(=O)CC[C@H](NC(=O)CCCCCCCCCCCCCCCCCCC(=O)O)C(=O)O)C(=O)N[C@@H](CC(N)=O)C(=O)N[C@@H]([C@@H](C)O)C(=O)N[C@@H](C)C(=O)N[C@@H]([C@@H](C)O)C(=O)N1)[C@@H](C)O)C(=O)N1CCC[C@H]1C(=O)N[C@@H](CO)C(=O)N[C@@H](CO)C(=O)N[C@H](C(=O)N[C@@H](CC(N)=O)C(=O)N[C@H](C(=O)NCC(=O)N[C@@H](CCCNC(=N)N)C(=O)N[C@@H](CC(N)=O)C(=O)N[C@H](C(=O)N[C@@H](Cc1ccc(O)cc1)C(N)=O)[C@@H](C)O)C(C)C)[C@@H](C)O
notes: Analogue of human amylin; disulfide and C-terminal amide as told for h-amylin; also called compound 79

Molecular target: T1, rat calcitonin receptor
Assay: ratio of binding IC50 at rat calcitonin receptor to IC50 at rat amylin receptor (reference)

Row | Ratio rCT/rAmylin binding | Binder
1 | 93.2 | B1
2 | 137 | B2
3 | 49.7 | B3
4 | 46.5 | B4
5 | 21.5 | B5

Molecular target: T2, human calcitonin receptor
Assay: ratio of binding IC50 at human calcitonin receptor to IC50 at human amylin receptor (reference)
Outline: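 Competition binding by SPA uses membrane preparations (35 ng/μL final) in pH 7.4 Hepes buffer with 1 mM CaCl2 and 5 mM MgCl₂. Incubation lasts 120 min at 25° C, and IC₅₀ comes from one-site fitting.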

Row | Ratio hCT/hAmylin binding | Binder
6 | 82.4 | B1
7 | 118 | B2
8 | 146 | B3
9 | 91.8 | B4
10 | 46.1 | B5

Molecular target: T1, rat calcitonin receptor
Assay: SPA competition with 125I-calcitonin, membranes with rat calcitonin receptor (Assay VIII)

Row | IC50 [nM] | Binder
11 | 108 | B1
12 | 205 | B2
13 | 140 | B3
14 | 146 | B4
15 | 35.5 | B5
